From PMC6624373
Values joined by “and” are separate entries in the source; they are usually repeats but may differ in a detail not shown here. Equal entries are not always repeated.

Key:
Details in all cases: remark: other sources report otherwise
[1] = molecular target: T1, lamin A (human, mature form, without tags, wild type) (human), P02545; test: rotary metal shadowing EM; un-cross-linked lamin A at 0.1 mg/mL in Tris buffer (25 mM Tris, 250 mM NaCl, pH 8.0) or NaPi buffer (100 mM NaPi, 250 mM NaCl, pH 8.0), 30% glycerol, sprayed on mica; dimers and head-to-tail tetramers
T1 chain: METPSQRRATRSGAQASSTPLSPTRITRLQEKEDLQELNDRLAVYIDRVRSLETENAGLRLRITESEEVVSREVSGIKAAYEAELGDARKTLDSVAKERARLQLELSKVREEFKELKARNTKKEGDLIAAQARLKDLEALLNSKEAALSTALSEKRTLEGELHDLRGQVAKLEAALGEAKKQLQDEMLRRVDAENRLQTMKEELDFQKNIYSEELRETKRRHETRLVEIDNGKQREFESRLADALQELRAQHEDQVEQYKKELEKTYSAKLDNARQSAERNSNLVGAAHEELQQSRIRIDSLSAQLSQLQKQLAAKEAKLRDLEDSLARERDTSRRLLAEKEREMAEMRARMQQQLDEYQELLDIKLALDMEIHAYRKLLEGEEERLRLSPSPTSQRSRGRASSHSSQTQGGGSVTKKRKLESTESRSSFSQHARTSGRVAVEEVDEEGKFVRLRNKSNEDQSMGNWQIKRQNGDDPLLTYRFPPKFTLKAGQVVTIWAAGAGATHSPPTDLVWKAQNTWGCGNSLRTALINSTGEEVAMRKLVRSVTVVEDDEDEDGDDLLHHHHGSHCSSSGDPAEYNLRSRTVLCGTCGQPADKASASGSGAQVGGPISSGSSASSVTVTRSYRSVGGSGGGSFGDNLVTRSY

[2] = molecular target: T1, lamin A (human, mature form, without …); test: AUC; sedimentation velocity, 0.3 mg/mL lamin A in Tris or NaPi buffer, 45,000 rpm, 20 °C, interference optics, c(s) model
[3] = molecular target: T2, 6xHis-tagged lamin A (human, mature form) (human), P02545; test: pull-down; Ni-NTA pull-down of a 1:1 mix of un-tagged and 6xHis-tagged lamin A monomers after gel-extraction and refolding
T2 chain: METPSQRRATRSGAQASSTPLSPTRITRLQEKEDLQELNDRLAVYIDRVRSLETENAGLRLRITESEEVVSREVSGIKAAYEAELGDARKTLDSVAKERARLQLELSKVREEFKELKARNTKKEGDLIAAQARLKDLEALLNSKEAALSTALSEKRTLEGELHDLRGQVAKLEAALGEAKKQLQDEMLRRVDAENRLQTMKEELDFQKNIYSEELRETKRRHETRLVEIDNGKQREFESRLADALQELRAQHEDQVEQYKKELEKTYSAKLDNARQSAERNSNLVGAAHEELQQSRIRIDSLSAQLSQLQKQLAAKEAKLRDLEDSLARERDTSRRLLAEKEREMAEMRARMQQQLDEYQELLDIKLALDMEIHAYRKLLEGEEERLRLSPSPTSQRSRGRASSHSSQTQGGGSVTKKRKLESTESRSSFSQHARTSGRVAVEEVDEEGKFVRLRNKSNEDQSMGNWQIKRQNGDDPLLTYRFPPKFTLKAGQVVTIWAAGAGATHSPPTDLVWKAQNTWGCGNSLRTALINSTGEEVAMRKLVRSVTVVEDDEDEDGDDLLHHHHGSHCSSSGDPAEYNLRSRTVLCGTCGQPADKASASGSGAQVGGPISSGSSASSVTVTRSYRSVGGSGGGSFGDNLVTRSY

[4] = molecular target: T1, lamin A (human, mature form, without …); test: AUC; sedimentation velocity, 0.3 mg/mL lamin A in Tris or NaPi buffer, 45,000 rpm, 20 °C, interference optics, c(s) model
[5] = molecular target: T1, lamin A (human, mature form, without …); test: cross-linking; 0.4 mg/mL lamin A in NaPi buffer, EDC:S-NHS (1:4:8.8 by weight lamin A:EDC:S-NHS), 30 min, room temperature; product bands resolved by SDS-PAGE, gel-extracted and seen by rotary metal shadowing EM

B1: lamin A (human, mature form, without tags, wild type), P02545 1-646 (natural protein)
chain: METPSQRRATRSGAQASSTPLSPTRITRLQEKEDLQELNDRLAVYIDRVRSLETENAGLRLRITESEEVVSREVSGIKAAYEAELGDARKTLDSVAKERARLQLELSKVREEFKELKARNTKKEGDLIAAQARLKDLEALLNSKEAALSTALSEKRTLEGELHDLRGQVAKLEAALGEAKKQLQDEMLRRVDAENRLQTMKEELDFQKNIYSEELRETKRRHETRLVEIDNGKQREFESRLADALQELRAQHEDQVEQYKKELEKTYSAKLDNARQSAERNSNLVGAAHEELQQSRIRIDSLSAQLSQLQKQLAAKEAKLRDLEDSLARERDTSRRLLAEKEREMAEMRARMQQQLDEYQELLDIKLALDMEIHAYRKLLEGEEERLRLSPSPTSQRSRGRASSHSSQTQGGGSVTKKRKLESTESRSSFSQHARTSGRVAVEEVDEEGKFVRLRNKSNEDQSMGNWQIKRQNGDDPLLTYRFPPKFTLKAGQVVTIWAAGAGATHSPPTDLVWKAQNTWGCGNSLRTALINSTGEEVAMRKLVRSVTVVEDDEDEDGDDLLHHHHGSHCSSSGDPAEYNLRSRTVLCGTCGQPADKASASGSGAQVGGPISSGSSASSVTVTRSYRSVGGSGGGSFGDNLVTRSY
B1 was tested, and the dimers seen per head-to-tail tetramer (EM) (dimers per tetramer) [1] was 20 to 25, the stoichiometry N [1] was 2 and 4 and the stoichiometry N [2] was 2. For the same binder, the percent of un-tagged lamin A retained on the beads [3] was 50%, the stoichiometry N [4] was 4 and the stoichiometry N [5] was 2 and 4.
